The target of assay [1] is human CCR2 (CC-Chemokine Receptor 2) (human) (UniProt P41597). The experiment in a line: cell-based or functional assay.
A further assay addresses murine CCR2 (murine) (UniProt P51683). As to the kind of experiment: cell-based or functional assay.

Chain of human CCR2 (CC-Chemokine Receptor 2) (human) (P41597 whole entry): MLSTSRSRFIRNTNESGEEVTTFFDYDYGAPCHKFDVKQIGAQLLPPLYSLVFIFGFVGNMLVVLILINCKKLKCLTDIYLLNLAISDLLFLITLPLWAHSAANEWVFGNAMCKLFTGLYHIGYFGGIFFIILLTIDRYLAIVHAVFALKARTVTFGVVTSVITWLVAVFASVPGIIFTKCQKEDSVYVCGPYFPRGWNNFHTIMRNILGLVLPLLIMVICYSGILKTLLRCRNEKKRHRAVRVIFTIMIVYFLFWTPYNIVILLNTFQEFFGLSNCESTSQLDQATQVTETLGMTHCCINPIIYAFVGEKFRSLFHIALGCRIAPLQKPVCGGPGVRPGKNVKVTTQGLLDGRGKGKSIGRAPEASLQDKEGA
Chain of murine CCR2 (murine) (P51683 whole entry): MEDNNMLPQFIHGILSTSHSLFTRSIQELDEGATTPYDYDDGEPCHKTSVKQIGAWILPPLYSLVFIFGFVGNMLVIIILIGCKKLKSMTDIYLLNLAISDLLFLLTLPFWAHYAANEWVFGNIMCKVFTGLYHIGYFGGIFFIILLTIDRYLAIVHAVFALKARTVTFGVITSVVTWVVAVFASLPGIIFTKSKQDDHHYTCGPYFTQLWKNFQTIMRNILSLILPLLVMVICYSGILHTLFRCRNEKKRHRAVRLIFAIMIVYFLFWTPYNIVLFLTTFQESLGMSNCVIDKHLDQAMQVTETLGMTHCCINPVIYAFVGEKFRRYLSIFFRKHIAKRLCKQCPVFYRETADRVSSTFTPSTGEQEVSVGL

Take “human MCP-1 (PROSPEC # CHM-271) (from UniProt P13500 24-99) (ligand)”: in assay [1], the EC50 of MCP-1, MCP-1-induced calcium flux, THP-1 cells stood at 3.3 nM; the EC50 of MCP-1, MCP-1-induced calcium flux, primary human monocytes is 3.79 nM; the EC50 of MCP-1, MCP-1-induced chemotaxis, THP-1 cells amounted to 0.8 nM; the EC50 of MCP-1, MCP-1-induced chemotaxis, primary human monocytes stood at 0.389 nM.
“mMCP-1 (mouse MCP-1) (from UniProt P10148 24-148) (ligand)”: in the assay with murine CCR2 (murine), the EC50 of mMCP-1, mMCP-1-induced chemotaxis, WEHI 274.1 cells was 0.12 nM.

These data come from US20130344070A1.
